Reference: patent EP4707304A1 (Axcynsis Therapeutics Pte. Ltd., dated 2024)
Numbering of substitutions follows the chain as printed. Numbers in names are those of the source.

T1: VLP-hCLDN6 (human) (UniProt P56747)
T1 sequence: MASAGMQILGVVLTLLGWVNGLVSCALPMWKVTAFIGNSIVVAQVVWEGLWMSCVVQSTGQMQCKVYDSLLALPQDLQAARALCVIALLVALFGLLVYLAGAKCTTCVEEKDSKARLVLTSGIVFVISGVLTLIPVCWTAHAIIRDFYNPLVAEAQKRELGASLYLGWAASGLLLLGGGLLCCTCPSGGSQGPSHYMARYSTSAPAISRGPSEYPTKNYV

T2: VLP-hCLDN6 (human, UniProt P56747 1-220)
T2 construct: also called VLP-CLDN6; AT-003-ag1
T2 sequence: T1 sequence

B1: humanized antibody hAb-6 (antibody, V domains shown)
VH: EVKLVESGGGLVKPGGSLRLSCAASGFTFNSYTMSWVRQAPGKRLEWVVTISSGGGRTYYPDSVKGRFTISRDNAKNTLYLQMSSLRAEDTAVYYCIRGDYRYDGFAYWGQGTLVTVSS
VL: DIQMTQSPSSLSASVGDRVTITCRASENIDSYLAWYQQKPGKSPQLLVYASTLLQDGVPSRFSGSRSGTDFTLTISSLQPEDVATYYCQHYYSIPYTFGSGTKLEIK
B2: humanized antibody hAb-7 (antibody, V domains shown)
VH: B1 VH
VL: B1 VL with D70Q, T85R
B3: humanized antibody hAb-8 (antibody, V domains shown)
VH: B1 VH
VL: B1 VL with D70Q, V83F
B4: humanized antibody hAb-9 (antibody, V domains shown)
VH: B1 VH
VL: B1 VL with Q55V, D70Q, T72S, T85R
B5: humanized antibody hAb-10 (antibody, V domains shown)
VH: B1 VH with A40T, G42A
VL: B1 VL
B6: humanized antibody hAb-11 (antibody, V domains shown)
VH: B1 VH with A40T, G42A
VL: B1 VL with D70Q, T85R
B7: humanized antibody hAb-12 (antibody, V domains shown)
VH: B1 VH with A40T, G42A
VL: B1 VL with D70Q, V83F
B8: humanized antibody hAb-13 (antibody, V domains shown)
VH: B1 VH with A40T, G42A
VL: B1 VL with Q55V, D70Q, T72S, T85R
B9: humanized antibody hAb-14 (antibody, V domains shown)
VH: B1 VH with K13Q
VL: B1 VL
B10: humanized antibody hAb-15 (antibody, V domains shown)
VH: B1 VH with K13Q
VL: B1 VL with D70Q, T85R
B11: humanized antibody hAb-16 (antibody, V domains shown)
VH: B1 VH with K13Q
VL: B1 VL with D70Q, V83F
B12: humanized antibody hAb-17 (antibody, V domains shown)
VH: B1 VH with K13Q
VL: B1 VL with Q55V, D70Q, T72S, T85R
B13: humanized antibody hAb-18 (antibody, V domains shown)
VH: B1 VH with K13Q, A40T, G42A
VL: B1 VL
B14: humanized antibody hAb-19 (antibody, V domains shown)
VH: B1 VH with K13Q, A40T, G42A
VL: B1 VL with D70Q, T85R
B15: humanized antibody hAb-20 (antibody, V domains shown)
VH: B1 VH with K13Q, A40T, G42A
VL: B1 VL with D70Q, V83F
B16: humanized antibody hAb-21 (antibody, V domains shown)
VH: B1 VH with K13Q, A40T, G42A
VL: B1 VL with Q55V, D70Q, T72S, T85R
B17: humanized antibody hAb-22 (antibody, V domains shown)
VH: B1 VH with A40T, G42A, K76R
VL: B1 VL
B18: humanized antibody hAb-23 (antibody, V domains shown)
VH: B1 VH with A40T, G42A, K76R
VL: B1 VL with D70Q, T85R
B19: humanized antibody hAb-24 (antibody, V domains shown)
VH: B1 VH with A40T, G42A, K76R
VL: B1 VL with D70Q, V83F
B20: humanized antibody hAb-25 (antibody, V domains shown)
VH: B1 VH with A40T, G42A, K76R
VL: B1 VL with Q55V, D70Q, T72S, T85R
B21: humanized antibody hAb-29 (antibody, V domains shown)
VH: B1 VH with S31D, A40T, G42A
VL: B1 VL with Q55V, D70Q, T72S, T85R
notes: also called VH2VL4 with HC S31D
B22: humanized antibody hAb-26 (antibody, V domains shown)
VH: B1 VH with S31Y, A40T, G42A
VL: B1 VL with Q55V, D70Q, T72S, T85R
notes: also called VH2VL4 with HC S31Y
B23: humanized antibody hAb-27 (antibody, V domains shown)
VH: B1 VH with S31M, A40T, G42A
VL: B1 VL with Q55V, D70Q, T72S, T85R
notes: also called VH2VL4 with HC S31M
B24: humanized antibody hAb-28 (antibody, V domains shown)
VH: B1 VH with S31Q, A40T, G42A
VL: B1 VL with Q55V, D70Q, T72S, T85R
notes: also called VH2VL4 with HC S31Q
B25: humanized antibody hAb-30 (antibody, V domains shown)
VH: B1 VH with S31E, A40T, G42A
VL: B1 VL with Q55V, D70Q, T72S, T85R
notes: also called VH2VL4 with HC S31E
B26: humanized antibody hAb-33 (antibody, V domains shown)
VH: B1 VH with A40T, G42A, G105A
VL: B1 VL with Q55V, D70Q, T72S, T85R
notes: also called VH2VL4 with HC G100A
B27: humanized antibody hAb-34 (antibody, V domains shown)
VH: B1 VH with S31D, A40T, G42A, G105A
VL: B1 VL with Q55V, D70Q, T72S, T85R
notes: also called VH2VL4 with HC S31D/G100A
B28: humanized antibody hAb-44 (antibody, V domains shown)
VH: B1 VH with S31D, T78S, S84N, G105A
VL: B1 VL
notes: also called VH6VL5
B29: humanized antibody hAb-45 (antibody, V domains shown)
VH: B1 VH with K3Q, S31D, G105A
VL: B1 VL
notes: also called VH7VL5
B30: humanized antibody hAb-46 (antibody, V domains shown)
VH: B1 VH with K3Q, S31D, T78S, S84N, G105A
VL: B1 VL
notes: also called VH8VL5
B31: humanized antibody hAb-47 (antibody, V domains shown)
VH: B1 VH with S31D, T78S, S84N, G105A
VL: B1 VL with Q55V, D70Q, T72S, T85R
notes: also called VH6VL4
B32: humanized antibody hAb-48 (antibody, V domains shown)
VH: B1 VH with K3Q, S31D, G105A
VL: B1 VL with Q55V, D70Q, T72S, T85R
notes: also called VH7VL4
B33: humanized antibody hAb-49 (antibody, V domains shown)
VH: B1 VH with K3Q, S31D, T78S, S84N, G105A
VL: B1 VL with Q55V, D70Q, T72S, T85R
notes: also called VH8VL4
B34: murine/human chimeric antibody cAb-2 (antibody, V domains shown)
VH: B1 VH with R19K, S31E, A40T, G42A, K76R, A88S, V93M, S119T
VL: DIQMTQSPASLSASVGETVTITCRASENIDSYLAWYQQKQGKSPQLLVYASTLLVDGVPSRFSGSRSGTQFSLKINSLQSEDVARYYCQHYYSIPYTFGSGTKLEIK
notes: also called cAb-1 with S31E
B35: murine/human chimeric antibody cAb-3 (antibody, V domains shown)
VH: B1 VH with R19K, S31D, A40T, G42A, K76R, A88S, V93M, S119T
VL: B34 VL
notes: also called cAb-1 with S31D
B36: murine/human chimeric antibody cAb-18 (antibody, V domains shown)
VH: B1 VH with R19K, A40T, G42A, K76R, A88S, V93M, G105K, S119T
VL: B34 VL
notes: also called cAb-1 with G100K

Each binder was assayed against T1, VLP-hCLDN6 (human) (assay: ELISA, coated VLP-hCLDN6, 100 ul antibody sample, HRP-Protein A).

Binder	OD450
B1	1.55
B2	1.73
B3	1.84
B4	1.84
B5	1.5
B6	1.81
B7	1.76
B8	1.95
B9	0.97
B10	1.78
B11	1.39
B12	1.93
B13	1.68
B14	1.7
B15	1.81
B16	2.23
B17	1.63
B18	1.82
B19	1.94
B20	2.05

What follows are binders tested against T2, VLP-hCLDN6 (assay: ELISA on coated VLP-hCLDN6).

Binder	EC50
B21	0.29 nM
B22	0.1 nM
B23	0.12 nM
B24	0.19 nM
B25	0.29 nM
B26	0.31 nM
B27	0.89 nM
B28	6.67 nM
B29	4.84 nM
B30	6.55 nM
B31	0.11 nM
B32	0.13 nM
B33	0.07 nM

The binders below were run against T1, VLP-hCLDN6 (human) (assay: ELISA, coated VLP-hCLDN6, 10 ul antibody sample, HRP-Protein A).

Binder	OD450
B1	0.89
B2	1.37
B3	1.27
B4	1.71
B5	1.18
B6	1.41
B7	1.36
B8	1.68
B9	0.22
B10	1.39
B11	1.26
B12	1.6
B13	1.17
B14	1.62
B15	1.38
B16	2.05
B17	1.12
B18	1.42
B19	1.45
B20	1.69

The binders below were run against T2, VLP-hCLDN6 (assay: ELISA, VLP-CLDN6 coated 400 ng/well, 4-fold serial dilution, HRP goat anti-human IgG Fc).

Binder	EC50
B34	0.52 nM
B35	0.26 nM
B36	0.58 nM

These binders were tested against T1, VLP-hCLDN6 (human) (assay: ELISA, coated VLP-hCLDN6, 10 ul antibody sample (second well), HRP-Protein A).

Binder	OD450
B1	1.04
B2	1.46
B3	1.22
B4	1.57
B5	1.13
B6	1.54
B7	1.4
B8	1.7
B9	0.23
B10	1.47
B11	1.24
B12	1.72
B13	1.13
B14	1.57
B15	1.41
B16	1.9
B17	0.96
B18	1.46
B19	1.34
B20	1.7

Each binder was assayed against T1, VLP-hCLDN6 (human) (assay: ELISA, coated VLP-hCLDN6, 100 ul antibody sample (second well), HRP-Protein A).

Binder	OD450
B1	1.61
B2	1.91
B3	1.88
B4	1.94
B5	1.51
B6	1.8
B7	1.67
B8	2.26
B9	0.99
B10	1.8
B11	1.71
B12	1.78
B13	1.52
B14	1.79
B15	1.68
B16	2.45
B17	1.65
B18	2.05
B19	1.87
B20	2.24
